Biological target: PbTpk2^(226-583)-His6 (P. brasiliensis)

in vitro kinase activity (ADP-Glo) of 3 μM PbTpk2 on 50 μM kemptide in the presence of 4 μM PbGpb1, relative to PbTpk2 with kemptide alone: 40 % reduction
Substance: PbGpb1-GST (natural protein)

— paper PMC4559445
